These results are taken from patent US20240197738A1 (UNIVERSITY OF NORTH CAROLINA AT CHAPEL HILL, published 2024).

One test deals with T1, CUL3-E358Q (UniProt Q13618 1-768).
T1 construct: also called E358Q-CUL3
Kind of test: binding assay in cells; method not described.

The next test has as its target T2, CUL3 (wild type) (UniProt Q13618 1-768).
T2 construct: also called WT-CUL3; cullin 3
Description: binding assay in cells; method not described.

The target of the next test is T3, EWSR1 (wild type) (UniProt Q01844 1-656, limits assumed).
T3 construct: also called EWSR1-WT; HA-EWSR1
T3 sequence (looked up): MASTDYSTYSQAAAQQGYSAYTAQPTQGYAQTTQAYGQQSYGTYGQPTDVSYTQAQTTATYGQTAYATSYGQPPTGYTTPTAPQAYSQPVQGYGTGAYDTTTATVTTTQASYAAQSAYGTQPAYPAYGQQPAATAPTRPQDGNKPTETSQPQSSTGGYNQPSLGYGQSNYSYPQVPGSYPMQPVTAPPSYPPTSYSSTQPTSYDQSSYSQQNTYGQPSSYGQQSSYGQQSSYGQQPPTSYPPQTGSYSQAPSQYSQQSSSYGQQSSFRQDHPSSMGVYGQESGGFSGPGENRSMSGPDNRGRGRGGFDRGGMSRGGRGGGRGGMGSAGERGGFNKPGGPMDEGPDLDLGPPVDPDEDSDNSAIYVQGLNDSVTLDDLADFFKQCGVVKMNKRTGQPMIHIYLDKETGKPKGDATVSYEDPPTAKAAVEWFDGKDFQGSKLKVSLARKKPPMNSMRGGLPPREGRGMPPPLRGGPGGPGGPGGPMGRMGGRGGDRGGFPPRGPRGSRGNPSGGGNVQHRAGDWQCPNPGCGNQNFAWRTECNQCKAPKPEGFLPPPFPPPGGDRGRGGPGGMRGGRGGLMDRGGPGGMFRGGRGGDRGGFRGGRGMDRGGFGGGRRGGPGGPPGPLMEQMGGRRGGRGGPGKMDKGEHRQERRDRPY
Description: binding assay in cells; method not described, data not shown.

T1 sequence (Q13618 whole entry E358Q): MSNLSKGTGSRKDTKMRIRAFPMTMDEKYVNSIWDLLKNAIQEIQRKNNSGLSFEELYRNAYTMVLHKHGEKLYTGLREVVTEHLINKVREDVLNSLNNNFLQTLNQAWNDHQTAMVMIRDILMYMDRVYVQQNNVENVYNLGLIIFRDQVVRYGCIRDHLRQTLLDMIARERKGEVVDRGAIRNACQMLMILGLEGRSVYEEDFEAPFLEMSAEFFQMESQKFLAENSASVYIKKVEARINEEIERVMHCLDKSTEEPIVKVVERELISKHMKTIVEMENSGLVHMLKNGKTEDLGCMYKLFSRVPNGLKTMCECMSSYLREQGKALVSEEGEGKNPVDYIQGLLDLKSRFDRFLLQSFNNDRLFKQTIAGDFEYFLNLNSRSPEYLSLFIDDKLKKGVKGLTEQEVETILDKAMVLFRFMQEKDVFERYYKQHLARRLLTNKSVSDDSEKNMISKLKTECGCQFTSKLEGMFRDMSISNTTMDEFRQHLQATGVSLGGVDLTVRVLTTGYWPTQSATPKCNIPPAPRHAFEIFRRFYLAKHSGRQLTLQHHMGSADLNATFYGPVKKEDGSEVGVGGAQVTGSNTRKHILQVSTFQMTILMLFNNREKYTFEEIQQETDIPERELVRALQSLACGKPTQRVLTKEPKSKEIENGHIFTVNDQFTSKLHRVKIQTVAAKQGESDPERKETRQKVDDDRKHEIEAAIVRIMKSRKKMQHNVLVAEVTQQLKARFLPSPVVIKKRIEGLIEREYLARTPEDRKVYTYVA
T2 sequence (Q13618 whole entry): as the sequence (Q13618 whole entry E358Q) above, with Q358E counted along it

B1: SPOP (other, human, UniProt O43791 1-374, looked up)
chain: MSRVPSPPPPAEMSSGPVAESWCYTQIKVVKFSYMWTINNFSFCREEMGEVIKSSTFSSGANDKLKWCLRVNPKGLDEESKDYLSLYLLLVSCPKSEVRAKFKFSILNAKGEETKAMESQRAYRFVQGKDWGFKKFIRRDFLLDEANGLLPDDKLTLFCEVSVVQDSVNISGQNTMNMVKVPECRLADELGGLWENSRFTDCCLCVAGQEFQAHKAILAARSPVFSAMFEHEMEESKKNRVEINDVEPEVFKEMMCFIYTGKAPNLDKMADDLLAAADKYALERLKVMCEDALCSNLSVENAAEILILADLHSADQLKTQAVDFINYHASDVLETSGWKSMVVSHPHLVAEAYRSLASAQCPFLGPPRKRLKQS
notes: Exogenous SPOP carried a GST, Flag or HA tag; endogenous SPOP was also used; also called GST-SPOP; Flag-SPOP
On to B1, for which the values for the binding result with CUL3-E358Q, with CUL3 (wild type) and in the test with EWSR1 (wild type) were “binds”, “binds” and “no binding”, respectively.
